This note sets out measurements from the DeepSol protein solubility set.

The nature of this series: soluble on expression in E. coli; label from the status in PepcDB or PDB records.
With “MDYDRYKLFVGGIAKETSEEALKQYFSRYGAVLEAVVAKEKVTGKPRGFGFVRFANDCDVVKALRDTHFILGKPVDVRKAIRKHELYQQPFSMQFLERKVQQMNGGLREMSSNGVTSRTKKIFVGGLSSNTTEEEFKSYFERFGRTTDVVVMHDGVTNRPRGFGFVTYDSEDSVEVVMQSNFHELSDKRVEVKRAIPKEGIQSNNGNAVNIPPSYSSFQATPYVPEQNGYGMVLQFPPPVFGYHHNVQAVQYPYGYQFTAQVANVSWNNPIMQPTGFYCAPPHPTPPPTNNLGYIQYMNGFDLSGTNISGYNPLAWPVTGDAAGALIHQFVDLKLDVHSQAHQRMNGGNMGIPLQNGTYI”, the “soluble on expression in E. coli” value was “soluble”.
As to “MDYRVIKENDVFLLTDQDGNIPEHHPYGLGLYTKDTRFLSKWSLRINGEEPVLLASDAAQNYVATILLTNPHIERDGELILWRESVEIERKRFIYAGVLYETIKLKNYHPKPVQLEISVHMDADFADMFIVRGFQTGEVGKRTGQTIGKRSLTFHYEGADGVERATKVSWDREEKTVKEHGEIVFDFALDRAEEQTVTLMVEPITGKTGRVEVIPPEQALQRLQESYQRWEGETANVITDERQFERLVRRGIGDLRVLLTDLGCGPFPVAGLPWFGVPFGRDSLIAALQLLPFNHEIAKGTLLTMARYQGTKVDPWRDEQPGKIMHEIRFGELANTNQIPFTPYYGTIDATPLFLVLLVEYVKWTGNFDLVRQLRSNIDAALHWIDRYGDRDGDLFVEYFQESSKGIANQGWKDSGDSIVHENGEYARAPIALVEVQGYVYHAKMGLADIFEQLQEVEKAEALRTQAEALKKRFEEQFWMEDRKFYALALDENKAPVRTITSNPGHVLFSGMLEGRRADAVIDTLLSEKMFSGYGIRTMGEGEAGYNPMSYHNGSIWPHDNSLILLGLSKLGRRREAKTVIEGLMEASMHFEYDRLPELFCGYSRSEGKPVRYPVACSPQAWAAGTPLVFVQALLGLFPNALEKNIYLSPTLLDSMNMLRVENILIGGGRLSLTVTREQDNFHVQIDENTTGWDIVLR”, the “soluble on expression in E. coli” value is listed as “not soluble”.
For the sequence “MDYVCSVVFICQSFDLIINRRVISFKKNSLFIVSDKIRRELPVCPSKLRIVDIDKKTCLSFFIDVNNELPGKFTLDKNGYIAEEEPPLSLVFSLFEGIKIADSHSLWLKERLCISLLAMFKKRESVNSFILTNINTFTCKITGIISFNIERQWHLKDIAELIYTSESLIKKRLRDEGTSFTEILRDTRMRYAKKLITSNSYSINVVAQKCGYNSTSYFICAFKDYYGVTPSHYFEKIIGVTDGINKTID”, the “soluble on expression in E. coli” value is “not soluble”.
For the sequence “MEAEIFPGTIHLIDKPQAIPEAIRLLSASRTIGFDTETRPSFVRGARPSVALMQMSTETDCFLFRLNMIDIPEELQQLLENPGILKVGLSLSDDMTVIRRRKPIEPAGFVELQRLCPAYGIRDASLQKIYAILFGRRISKSQRLTNWEARTLTAAQQSYAALDAWACLRIFNQLMTLPTPTPVQFALL”, the “soluble on expression in E. coli” value was “not soluble”.
The entry for “MEALRLEGVSKRYGRRPVLEGVSLSVRPGEVYALAGPNGSGKTTLIRLATGLAFPTKGRAFLLGEDVHKSPAARRHLGAVVEAPAAFYPYLTGRENLRMHARLSGVEDEARIGEVLARLKLLAVADQKVEGYSLGQRQRLGLAAAILHRPKVLVLDEPTSGLDPEGVELVHRLLQELAREGVAILLSTHHLQEVARYAHRVGILGGGRLLDEVVLSGKEAYRLEAEPLEGALALLKTLPQVASARLQGRSVVFEGEPEAALRALLAEGYRVRALAPHRFDLLDYYQERVRHV” is “soluble”; for “MEANKKAKPSYGDVISNLPNDLLCRILSYLSTKEAALTSILSKRWSNLLLSIPILDFDDSVLLKPQKGQRKNVFFKAFVDRLLSQRVETSSHVQRVSLKCRQGGVEPDCVIKWILTTVRDLGVLDLSLCIDFGIFHLPFNVFRSKTLVKLRIGTMIRLSQFPSDVVSPTLNSLVLDLVEFRDGDKVEFRQILLAFPSLQSLRVHESNKWKFWNGSASSRTLKSLVYRSDDDSSAPKPCVSFDTPSLVYLDYSDMVADKYENLKFDSLVEARLDLHLTAFQIMRKPNNIGIVSGDVTTLFKGIRNVKILCLSPDALEALYYRGEKIPMFNNLITLSLGSDKPHGSPFIFWKLLPSLLNNSLKLETLIIKGLVHYVAEGWEGLSPMTPMSRLCFSWDTVSDSLSSSAMKVLEISGYKGTWQELNQMKRFLGNLSRLEVVRVYHKAMDDKERINVMFDLFLLPKVSSECDIQVMKETA” it is “soluble”.
The entry for “MEARNAEGLESCIEKIQEVKLSSFAELKAFRERKVALITGITGQDGSYLAELLLSKGYKVHGIIRRSSSFNTARIEHLYGNPVTHNGSASFSLHYGDMTDSSCLIKLISTIEPTEIYHLAAQSHVKVSFDLPEYTAEVDAVGTLRLLDAIHACRLTEKVRFYQASTSELYGKVQEIPQSELTPFYPRSPYAVAKMYGYWIVVNYREAYKMFACNGILFNHESPRRGETFVTRKITRSVAKISLRQQEHIELGNLSALRDWGHAKEYVEAMWRILQQDTPDDFVIATGKQFSVREFCNLAFAEIGEQLVWEGEGVDEVGKNQDGVVRVKVSPKYYRPTEVETLLGNPAKARKTLGWEPKITVPELVKEMVASDIALMEADPMA” is “not soluble”; for “MEAVWGILPKTVAAALQHHLPSCRRGIEEIRIRVSRPLEVIVDGTARLLPYEVTKEDGVHLLNKLSHYSIYAVEEELKRGFMTIEGGHRVGLAGKVITEGGKVKAIRDVSSFNIRIAKEQIGISEPLIPYVYDGRWRHTMIIGSPQTGKTTLLRDAARLISSGTGRIPAQKVAIVDERSEIAGCVKGIPQFSFGPRLDVLDACPKAEGMMMMIRSMSPDVMIVDEIGREEDSEAVLEAANAGVSVWTTVHGRNIQDVWQRPTLGPVMEQKVFERFIELTNIPHPGSIRRILDAGGTVLYERAVVHR” it is “not soluble”; for “MEAYDICKFWKLDMLEEFSQIVLKGKKKIILDIPSPSQQNKSDIVSLCPADSPETCNSSIPDWLVKVMRKENGYDPKLIIKRRVLCTTDLRKNQGCLSMHLSKLEKSDFLTEDETRFLDEDFLKAKRDGLKVFLVDPESDKHVVYLKKWNGNTVWKYVLSHGWNNVIDKKIFKVNDVIEIWSFRDGSGKLCFALSSPTRCGRSSSGHSS” it is “soluble”.
To “MEDFKKIVNNIRLKDTFDFKLAAFPNQNYDQLLPSQIYKNYYQGIEIQQHKYQNELDIKIINFLYPDGDFGSANKNGTLKLSLMLTDKKNNQVYYKLLEVSGFKSNPYGVDLEHHHHHH” belongs “not soluble”.
As to “MEDGRTSDKVLEKIQEKIFSGEWKPGQKIMSETKLAEDLNVSRVSVREAIEKLAAFNIVSKKKGGGTFINDLGPSVYLNSLLPMLILNRDNYLEILEFRLITEPESAKLCAERCDDELIISLEKIYDNMKNYKDDIQKFTKEDLNFHTKIAEGTKNSLIIKINELLMNILEYHQRGLYETLGPKGGICEHKFILDAIKNRDSELAFIYSRRHAERTINDLKKLQT”, the “soluble on expression in E. coli” value was “not soluble”.
Take “MEEAKQKVVDFLNSKSGSKSKFYFNDFTDLFPDMKQREVKKILTALVNDEVLEYWSSGSTTMYGLKGAGKQAAAEHED”: the “soluble on expression in E. coli” value is on record as “soluble”.
For “MEEERQQSPLEGLSEEALKHVHQLDEPIPIELQASYFRLSAEMRRRGIQLSENEVQDAEQLLFDPVLSDDIKKMTLLRLAITGNITVFRIIERYLESAPDSMRPWALMAQLEARIGILSDLVDEKQLVITSGLGGHDGMMRFMAFLHTDKLQDFEHYQEELIEKELLYRIGKASGEVERLEMHNNYLLLTFLVPINYDLRNFFSSFIAECNQFGHFLSTTFIITNTQLLTPQGAQVALKKYAEENDLPATN”, the “soluble on expression in E. coli” value was “not soluble”.
Turning to “MEEIMLFPLSSVVLPEGKMKLRIFEPRYQRMVAQCSKTGSGFGLCLFDSKSNKNANELSEFGTLVKIVDFETLSDGLLGITVVGIRRFAIRKVRVEYDGLRIATVQWFPDWPSQELLERERFLGEQLQEVYRQFPQIGELHSLCFFDDASWVCQRWLELLPLSKGQFDVLVGQRDCHAALAFLQRTIESHLDT”, the “soluble on expression in E. coli” value is recorded as “not soluble”.
The entry for “MEELFCIGCGIQIQTEDKEKAGFTPAAALKKGMETGELYCQRCFRLRHYNEITDVHITDDEFLRLLHEVGDSDALVVNVIDIFDFNGSIIPGLSRFISGNDVLLVGNKKDILPKSVKDGKVTQWLTERAHEEGLRPLDVMLTSAQNKYAIKDLIGRINELRNGRDVYVVGVTNVGKSTLINAIIQEITGNKDVITTSRFPGTTLDKIEIPLDDGTFIFDTPGIIHRHQMAHYLSPKELKIVSPKKEIKPKTYQLNPEQTLFLGGLARFDFINGERQGFTAFFDNQLELHRTKLAGADAFYDKHVGTLLTPPDKKELTAFPKLVRHEFTIDQKMDIVFSGLGWIRVNGQKDSKAIVAAWAPEGVAVIVRKAII” is “soluble”; for “MEEPQITVGILSGKEIEFSFPESFTTPDGTKVSGAQKAVYQKEKIYWSGKEYDELIFYPQPNAGIFFELKDVTIGINFHWERKEVQRFQGALKIIVEGETLTAINVISIEDYLTSVISSEMSATASLELLKAHAVISRSWLINKLRVENEKWKATIQPDSAANSPHSTLHSQLIKWYDHEAHTHFDVCADDHCQRYQGITRASTPQAIEAVSATRGEVLMYEGKICDARFSKCCGGAMEEFQNCWENVRHPYLTGKRDYIPESHASDSEKQITGPAIQLPDLTQEEEADRWIRTSPDAFCNTQDKKILSQVLNNYDQETTDFYRWKISYSQQELAELIHQRSGIDFGEIIDLIPVERGTSGRLIRLKIVGTLRTLTIGKELEIRRTLSPSHLYSSAFLVDKEKGEEGNVPTRFTLTGAGWGHGVGLCQIGAAVMGERGYYYKDILAHYYPGSRLEKQYE” it is “not soluble”.
To “MEEPVLDFQFVHRKIHTGQIAAFDIIARLVPIKNIRGNDFDDRPAAAVFGMHNLQTRPVARHFEGGADFTQLIVLTLGQPESAYVAVRLKIVRGDISRGGVGKLTGKQSHT” belongs “not soluble”; to “MEERDSETGWRGSREGWLQAAYEALIEGGVESVKIMTLAARLKLSRTSFYWFFKDRADVLDALRSQWAGTTTAPLVAASAEYAESRAEAMLNVLACFLSGRFDARFEFAARSWGLQDPAMAAAVEAADAERLAALTDMLARWGHDPQEADVRARTVYLVQIGYISMRAEETLETRLARIPNYVEIYTGVRPEPREMARFRARLGLAV”, “not soluble”.
Take “MEERGDSEPTPGCSGLGPGGVRGFGDGGGAPSWAPEDAWMGTHPKYLEMMELDIGDATQVYVAFLVYLDLMESKSWHEVNCVGLPELQLICLVGTEIEGEGLQTVVPTPITASLSHNRIREILKASRKLQGDPDLPMSFTLAIVESDSTIVYYKLTDGFMLPDPQNISLRR”: the “soluble on expression in E. coli” value was “soluble”.
The entry for “MEERILFSQKTTIFVPVDNDSRIKPMSKDSLCAQHTDCSGCPKAMESTLIHRNLLRGQHIPKDKCTQNCMLFMIEGELLINSDEHPGTTLHEKQFILQAIGSKYEILALTDVSYILFWFNELPLLCENRYREIIDQAEGPLTYTPMVMNPRLFYLINDVAAYLDESTPACGKYIDLKCQEMVYMITNYYPLPQLRAFFYPISTYTESFQYFVMQNYSKAKNVEEFAHLGGYNTTTFRRLFRNLYGVPVYEWMLEKKREGILEDLQHSNMRITEICNRYGFDSLSHLAHFCKDSFGDTPRALRKKAANGEKIGKITD” is “not soluble”.
The entry for “MEERTLVILGATGSIGTQTLDVLKKVKGIRLIGISFHSNLELAFKIVKEFNVKNVAITGDVEFEDSSINVWKGSHSIEEMLEALKPDITMVAVSGFSGLRAVLASLEHSKRVCLANKESLVCGGFLVKKKLKEKGTELIPVDSEHSAIFQVMEPEVEKVVLTASGGALRDWKISKIDRARPEDVLKHPVWNMGARITVDSATMVNKAFEVLEAMELFELPFEKIEVKIHREGLVHGAVVLPDGNVKMVVSPPDMRIPISYALFYPRRVALEPFFLRTISLSFEDPDPEKYPAFFLLKEIKDSYALRTAFNAADEVAVEAFLKGRIRFGGIHRVIEKTLEEFQGYPQPRTLDDVERIHFEAIKKAERVTEWLSSTSY” is “soluble”.
